We go through three molecules from US20120107932A1 (published 2012).

The target of this assay is PRRS virus (PRRSV). The assay is described as follows: cell-based or functional assay.
In the case of KADGAEAKPAE [NMHC II-A artificial polypeptide (Seq ID No: 4)], the “CPE caused by PRRSV on Marc-145 and PAM cells, blocker at 1 µg/well ('++' means CPE in 50% cells)” value was determined as 50 % cells with CPE.
For GAGDGSDEEVDGKA [NMHC II-A artificial polypeptide (Seq ID No: 3)] the value was 50 % cells with CPE.
The same measure for GAGDGSDEE [NMHC II-A artificial polypeptide (Seq ID No: 2)]: 50 % cells with CPE.
